Measurements taken from patent US20140011746A1 (WISCONSIN ALUMNI RESEARCH FOUNDATION, published 2014).
One block for each binder: values may come before it.

Key:
α3β1 integrin = target: T1, α3β1 integrin (human, UniProt P26006 33-1051; P05556 21-798); assay: immunoprecipitation of native mSdc4 or mSdc4ΔC2 (FIG. 6D)
T1 construct: whole, on cells; Endogenous receptor in cell lysates

EGFR = target: T2, EGFR (human, UniProt P00533 25-1210); assay: co-immunoprecipitation from cell lysates
T2 construct: whole, on cells; Endogenous protein in cell lysates

HER2 = target: T3, HER2 (human, UniProt P04626 23-1255); assay: co-immunoprecipitation from mammary cell lysates
T3 construct: whole, on cells; Endogenous protein in cell lysates; also called ErbB2; HER2/Neu

T1 sequence (P26006 33-1051, chain 1 of 2): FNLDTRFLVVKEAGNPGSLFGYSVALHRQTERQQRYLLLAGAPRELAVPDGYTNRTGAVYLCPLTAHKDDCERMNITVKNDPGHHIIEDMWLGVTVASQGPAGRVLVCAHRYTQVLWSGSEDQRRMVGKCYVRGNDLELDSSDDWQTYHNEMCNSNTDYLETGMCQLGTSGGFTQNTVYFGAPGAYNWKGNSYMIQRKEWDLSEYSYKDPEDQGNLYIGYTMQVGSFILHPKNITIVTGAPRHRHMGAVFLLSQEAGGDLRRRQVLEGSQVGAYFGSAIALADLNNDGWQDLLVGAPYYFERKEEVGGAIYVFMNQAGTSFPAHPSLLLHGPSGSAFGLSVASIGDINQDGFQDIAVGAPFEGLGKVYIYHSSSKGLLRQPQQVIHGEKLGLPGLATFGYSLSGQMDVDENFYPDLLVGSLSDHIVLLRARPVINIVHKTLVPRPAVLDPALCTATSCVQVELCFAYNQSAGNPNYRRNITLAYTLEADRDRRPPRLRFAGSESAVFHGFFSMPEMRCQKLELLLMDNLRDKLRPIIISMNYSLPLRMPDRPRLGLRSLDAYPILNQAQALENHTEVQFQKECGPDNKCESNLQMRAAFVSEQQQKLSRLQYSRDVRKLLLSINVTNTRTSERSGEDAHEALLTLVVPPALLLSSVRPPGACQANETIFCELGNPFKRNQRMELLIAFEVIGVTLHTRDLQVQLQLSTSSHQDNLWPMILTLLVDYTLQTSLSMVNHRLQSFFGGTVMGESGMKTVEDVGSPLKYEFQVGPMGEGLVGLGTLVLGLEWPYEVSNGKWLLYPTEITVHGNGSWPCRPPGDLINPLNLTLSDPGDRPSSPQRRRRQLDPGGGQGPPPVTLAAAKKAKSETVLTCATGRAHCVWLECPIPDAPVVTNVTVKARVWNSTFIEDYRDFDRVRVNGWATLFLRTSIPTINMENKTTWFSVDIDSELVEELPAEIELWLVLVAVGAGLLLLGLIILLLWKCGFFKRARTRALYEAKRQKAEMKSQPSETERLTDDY
T1 sequence (P05556 21-798, chain 2 of 2): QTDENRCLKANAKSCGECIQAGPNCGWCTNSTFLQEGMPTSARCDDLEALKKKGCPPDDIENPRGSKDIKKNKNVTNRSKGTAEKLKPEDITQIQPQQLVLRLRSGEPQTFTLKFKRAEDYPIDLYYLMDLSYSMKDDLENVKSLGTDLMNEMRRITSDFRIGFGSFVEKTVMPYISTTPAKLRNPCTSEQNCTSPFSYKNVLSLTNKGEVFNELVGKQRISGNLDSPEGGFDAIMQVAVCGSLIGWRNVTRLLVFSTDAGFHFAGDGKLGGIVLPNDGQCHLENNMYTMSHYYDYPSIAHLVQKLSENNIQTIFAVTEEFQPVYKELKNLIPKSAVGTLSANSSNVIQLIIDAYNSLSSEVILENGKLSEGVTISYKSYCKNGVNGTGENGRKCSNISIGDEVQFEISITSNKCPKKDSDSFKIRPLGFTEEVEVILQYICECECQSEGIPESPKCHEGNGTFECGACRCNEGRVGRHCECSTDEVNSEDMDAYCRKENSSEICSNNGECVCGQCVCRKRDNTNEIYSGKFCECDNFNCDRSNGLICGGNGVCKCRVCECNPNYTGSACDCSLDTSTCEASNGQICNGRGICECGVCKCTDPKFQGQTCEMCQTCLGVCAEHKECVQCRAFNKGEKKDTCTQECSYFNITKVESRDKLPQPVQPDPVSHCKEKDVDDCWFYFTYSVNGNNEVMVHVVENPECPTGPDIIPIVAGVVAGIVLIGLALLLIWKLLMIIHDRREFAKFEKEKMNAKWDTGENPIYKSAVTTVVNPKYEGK

binding result (α3β1 integrin): binds
B1: mSdc4ΔC2 mutant (receptor, mouse, UniProt O35988 24-194, looked up)
chain: ESIRETEVIDPQDLLEGRYFSGALPDDEDAGGSDDFELSGSGDLDDTEEPRPFPEVIEPLVPLDNHIPENAQPGIRVPSEPKELEENEVIPKRAPSDVGDDMSNKVSMSSTAQGSNIFERTEVLAALIVGGVVGILFAVFLILLLVYRMKKKDEGSYDLGKKPIYKKAPTN
notes: whole, on cells; Lacks the last four residues, EFYA; also called mSdc4 C2

binding result (EGFR): no binding
B2: human syndecan-1 (receptor)
chain: QIVATNLPPEDQDGSGDDSDNFSGSGAGALQDITLSQQTPSTWKDTQLLTAIPTSPEPTGLEATAASTSTLPAGEGPKEGEAVVLPEVEPGLTAREQEATPRPRETTQLPTTHQASTTTATTAQEPATSHPHRDMQPGHHETSTPAGPSQADLHTPHTEDGGPSATERAAEDGASSQLPAAEGSGEQDFTFETSGENTAVVAVEPDRRNQSPVDQGATGASQGLLDRKEVLGGVIAGGLVGLIFAVCLVGFMLYRMKKKDEGSYSLEEPKQANGGAYQKPTKQEEFYA
notes: Endogenous Sdc1 of human cells, immunoprecipitated from cell lysates; also called hSdc1; Sdc1

binding result (HER2): no binding
B3: human syndecan-4 (receptor, UniProt P31431 19-198, looked up)
chain: ESIRETEVIDPQDLLEGRYFSGALPDDEDVVGPGQESDDFELSGSGDLDDLEDSMIGPEVVHPLVPLDNHIPERAGSGSQVPTEPKKLEENEVIPKRISPVEESEDVSNKVSMSSTVQGSNIFERTEVLAALIVGGIVGILFAVFLILLLMYRMKKKDEGSYDLGKKPIYKKAPTNEFYA
notes: whole, on cells; Endogenous protein, immunoprecipitated as a control; also called Sdc4; human Sdc4
